The source of these data is patent publication US20110262448A1 (Bristol-Myers Squibb, published 2011).

The target in test [1] is T1, cell-surface human mesothelin (naturally expressed on OVCAR3, NCI-H226, CFPAC-1 and KB cells and on human … (human, UniProt Q13421 296-598)).
T1 construct: whole, on cells; Endogenously expressed on the cell lines; also called cell surface mesothelin
In words: flow cytometry on NCI-H226 cells. The protocol:
(§1) To test the ability of the antibodies to bind to cell surface mesothelin protein, the antibodies were incubated with four different mesothelin-expressing cells: OVCAR3 (ATCC Designation HTB-161, a human ovarian cancer cell line), NCI-H226 (ATCC Designation CRL-5826, a human lung-derived mesothelioma), CFPAC-1 (ATCC Designation CRL-1918, a human pancreatic cancer cell line), and KB (ATCC Designation CCL-17, a human oral carcinoma cell line). For the flow cytometry studies, the 3C10, 6A4 and 7B1 monoclonal antibodies were diluted with cold 1×PBS+0.1% BSA to 40 μg/mL. For the binding reaction, 50 μl of diluted antibody solution was added to a 50 μl cell suspension containing 4×10⁵ cells and the mixture was incubated on ice for 30-60 minutes. The cells were then washed three times with 1×PBS+0.1% BSA. A 1:50 dilution of R-phycoerythrin-labeled goat anti-human IgG Fγ F(ab)₂ fragment (Jackson ImmunoResearch Labs, Cat. #109-116-098) was added and the mixture was incubated on ice for 1 hour, followed by washing twice with cold 1×PBS+0.1% BSA. After the final wash, 200 μl of cold 1×PBS+0.1% BSA was added to each solution and analysis of antibody binding was carried out by FACS.
On the technique in general: Flow cytometry measures light scatter and fluorescence of single cells or particles in a stream.

For test [2], the target named is T1, cell-surface human mesothelin …. In words: flow cytometry on KB cells. The protocol: as §1
Test [3] has the same target. In words: flow cytometry on CFPAC-1 cells. How it is done: as §1
Test [4] addresses T2, hu mesothelin-his fusion protein (human, UniProt Q13421 296-598, limits assumed).
T2 construct: domain: 40 kD portion of mesothelin; Soluble fusion protein secreted by transfected CHO cells; also called recombinant soluble mesothelin his-fusion protein; recombinant human mesothelin His-fusion protein; not shown: His tag at the C-terminus
In words: BIAcore SPR, antibody captured on protein G chip, mesothelin His-fusion protein injected. How it is done:
The binding of the 3C10, 6A4 and 7B1 antibodies to recombinant soluble mesothelin his-fusion protein was examined by BIAcore™ using a capture method. The 3C10, 6A4 and 7B1 antibodies each were separately captured on a protein G (Pierce, Rockford, Ill.) coated CM5 chip at high density (4000 RUs). The coating was performed based on the standard immobilization procedure recommended by the manufacturer. After the 3C10, 6A4 or 7B1 purified antibody was captured on protein G, a concentration series of recombinant human mesothelin His-fusion protein (450, 225, 112.5, 56, and 28 nM) was injected over the captured antibody for 2 minutes at a flow rate of […]. The antigen was allowed to dissociate for 8 minutes. Isotype controls were run on the chip, and the data used to subtract non-specific binding. All the analyses were carried out on a Biacore 2000 or 3000 surface plasmon resonance instrument, using BIAcore Control software v 4.01. Data was analyzed using BiaEvaluation v4.01 software.
(In general: Surface plasmon resonance follows binding to a sensor surface in real time, without labels.)

Test [5] deals with T1, cell-surface human mesothelin …. In words: flow cytometry on OVCAR3 cells. The protocol: as §1
The target in test [6] is mesothelin on CHO-mesothelin cells (CHO cells transfected to express the 40 kD membrane-associated portion of … (UniProt Q13421 296-598, limits assumed)). In words: cell-based or functional assay.

Substitutions are numbered along the chain they refer to.

T2 sequence (Q13421 other isoform, or with tags, fused parts or gaps limits assumed): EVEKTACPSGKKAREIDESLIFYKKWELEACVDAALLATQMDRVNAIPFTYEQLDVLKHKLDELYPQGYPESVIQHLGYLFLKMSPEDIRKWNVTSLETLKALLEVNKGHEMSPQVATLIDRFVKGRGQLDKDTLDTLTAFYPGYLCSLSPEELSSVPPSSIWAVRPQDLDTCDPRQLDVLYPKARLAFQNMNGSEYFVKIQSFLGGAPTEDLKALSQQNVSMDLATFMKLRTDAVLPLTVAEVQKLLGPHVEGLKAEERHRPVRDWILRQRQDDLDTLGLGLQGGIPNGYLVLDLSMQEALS
T1 sequence (Q13421 other isoform, or with tags, fused parts or gaps limits assumed): as above
Sequence of mesothelin on CHO-mesothelin cells (CHO cells transfected to express the 40 kD membrane-associated portion of … (Q13421 other isoform, or with tags, fused parts or gaps limits assumed): as above

B1: human monoclonal antibody 7B1 (antibody, V domains shown)
VH: EVHLVESGGGLVQPGGSLRLSCAASGFTFSRYWMSWVRQAQGKGLEWVASIKQAGSEKTYVDSVKGRFTISRDNAKNSLSLQMNSLRAEDTAVYYCAREGAYYYDSASYYPYYYYYSMDVWGQGTTVTVSS
VL: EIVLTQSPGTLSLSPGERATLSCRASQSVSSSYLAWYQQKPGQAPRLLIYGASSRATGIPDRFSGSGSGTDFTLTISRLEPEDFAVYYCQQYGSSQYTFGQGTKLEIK
notes: also called 7B1 mAb; 1382.210.7B1.2.18
Consider B1, for which the EC50 in test [1] is 0.664 nM; in test [2] it was 0.0679 nM; in test [3], 0.0643 nM; in test [5], 0.11 nM. Besides, in test [4], the Kd came to 2.4 nM. Moreover, in test [4], the koff was 0.000171 s⁻¹. The molecule also yielded a kon in test [4] of 71500 M⁻¹ s⁻¹.

B2: human monoclonal antibody 3C10 (antibody, IgG1, V domains shown)
VH: QVYLVESGGGVVQPGRSLRLSCAASGITFSIYGMHWVRQAPGKGLEWVAVIWYDGSHEYYADSVKGRFTISRDNSKNTLYLLMNSLRAEDTAVYYCARDGDYYDSGSPLDYWGQGTLVTVSS
VL: EIVLTQSPATLSLSPGERATLSCRASQSVSSYLAWYQQKPGQAPRLLIYDASNRATGIPARFSGSGSGTDFTLTISSLEPEDFAVYYCQQRSNWPLTFGGGTKVEIK
notes: hybridoma-derived purified antibody; also called 3C10 mAb; 1382.210.3C10.1.6
Take B2: the EC50 in test [1] amounted to 0.197 nM; in test [2] it was 0.144 nM; in test [3] it was 0.193 nM; in test [5], 0.213 nM. This molecule came in with a Kd in test [4] of 5.8 nM. The koff in test [4] was found to be 0.000362 s⁻¹. The molecule also returned a kon in test [4] of 63000 M⁻¹ s⁻¹.

B3: human monoclonal antibody 6A4 (antibody, IgG1, V domains shown)
VH: B2 VH with Y3H, A23V, S30R, I51L, L82Q, V93I
VL: B2 VL
notes: also called 6A4 mAb; 1382.210.6A4.1.6
With B3, the EC50 in test [1] turned out to be 0.156 nM; in test [2], 0.181 nM; in test [3] it was 0.193 nM; in test [5] it was 0.17 nM. Further, the Kd in test [4] amounted to 5.9 nM. Further, the koff in test [4] came out at 0.000377 s⁻¹. The same molecule yielded a kon in test [4] of 63900 M⁻¹ s⁻¹. For the same molecule, the “Antibody Dependent Cellular Cytotoxicity, EC50 (nM), CHO-mesothelin target cells” value in test [6] amounted to 63.1 nM.

Broadly, the EC50 is the midpoint of the concentration-response curve. A word on the Kd: it is the constant that tells how readily two partners part at equilibrium. A high value points to lower affinity. What is called koff is a measure of how fast the partners let go of each other. In general, kon refers to the second-order rate constant of association. Low values mean slower complex formation, high ones faster complex formation.
